The first experiment has as its target HLA-A*1101 (human).
Settings: not given
Take MLIQPPKLR (modifications not checked) [HPV18 E1 312 …]: the binding affinity ratio (IC50 of standard peptide / IC50 of test peptide) was 0.0014. In the case of GTTLEQQYNK (modifications not checked) [… (HPV16 E6, position 92, 10 amino acids)], the binding affinity ratio (IC50 of standard peptide / IC50 of test peptide) (ratio to standard peptide) stood at 0.07. On to NMSQWIRFR (modifications not checked) [HPV18 E1 428 …], for which the binding affinity ratio (IC50 of standard peptide / IC50 of test peptide) stood at 0.0012.

For TTLEQQYNK (modifications not checked) [… (HPV16 E6, position 93, 9 amino acids)], the relative binding ratio (IC50 of standard peptide / IC50 of test peptide) turned out to be 0.29. On to QMNMSQWIR (modifications not checked) [HPV18 E1 426 …], for which the binding affinity ratio (IC50 of standard peptide / IC50 of test peptide) is 0.0023.

LIRCINCQK (modifications not checked) [… (HPV16 E6, position 107, 9 amino acids)]: the binding affinity ratio (IC50 of standard peptide / IC50 of test peptide) (ratio to standard peptide) stood at 0.0009. Regarding FITFLGALK (modifications not checked) [HPV18 E1 460-468 peptide …], the relative binding ratio (IC50 of standard peptide / IC50 of test peptide) was 0.037. In the case of LVRNFKSDK (modifications not checked) [HPV18 E1 229 …], the binding affinity ratio (IC50 of standard peptide / IC50 of test peptide) amounted to 0.0002. Take DIEITCVYCK (modifications not checked) [HPV18 E6 27 …]: the binding affinity ratio (IC50 of standard peptide / IC50 of test peptide) was found to be 0.0021. On the same count and under the same terms, in the case of EVFEFAFK (modifications not checked) [HPV18 E6 43 EVFEFAFK] it was 0.018.

Turning to DSVYGDTLEK (modifications not checked) [HPV18 E6 83 …], the binding affinity ratio (IC50 of standard peptide / IC50 of test peptide) worked out at 0.0051. On to ALLRYKCGK (modifications not checked) [HPV18 E1 284-292 peptide …], for which the relative binding ratio (IC50 of standard peptide / IC50 of test peptide) was 0.14.

For KFYSKISEYR (modifications not checked) [… (HPV16 E6, position 75, 10 amino acids)], the binding affinity ratio (IC50 of standard peptide / IC50 of test peptide) (ratio to standard peptide) was 0.0002. With NSNAAAFLK (modifications not checked) [HPV18 E1 393 …], the binding affinity ratio (IC50 of standard peptide / IC50 of test peptide) was 0.37.

For the molecule LIRCLRCQK (modifications not checked) [HPV18 E6 102 …], the binding affinity ratio (IC50 of standard peptide / IC50 of test peptide) was 0.0012. Take IILECVYCK (modifications not checked) [… (HPV16 E6, position 33, 9 amino acids)]: the binding affinity ratio (IC50 of standard peptide / IC50 of test peptide) (ratio to standard peptide) is 0.019. In the case of LLIRCLRCQK (modifications not checked) [HPV18 E6 101 …], the binding affinity ratio (IC50 of standard peptide / IC50 of test peptide) is 0.12. Turning to HDIILECVY (modifications not checked) [… (HPV16 E6, position 31, 9 amino acids)], the binding affinity ratio (IC50 of standard peptide / IC50 of test peptide) (ratio to standard peptide) came to 0.0001. On to SVAALYWYR (modifications not checked) [HPV18 E1 peptide … (position 322, 9 amino acids)], for which the relative binding ratio (IC50 of standard peptide / IC50 of test peptide) was found to be 8.8. Still for that read-out and setting: as for CATMCKHYR (modifications not checked) [HPV18 E1 412-420 peptide …], the figure is 0.011. In the case of LLIRCINCQK (modifications not checked) [… (HPV16 E6, position 106, 10 amino acids)], the binding affinity ratio (IC50 of standard peptide / IC50 of test peptide) (ratio to standard peptide) was 0.18. On to CIDFYSRIR (modifications not checked) [HPV18 E6 68 …], for which the binding affinity ratio (IC50 of standard peptide / IC50 of test peptide) came to 0.0001.

The same experiment, now with this note: remark: other sources report otherwise.
Consider KFYSKISEY (modifications not checked) [… (HPV16 E6, position 75, 9 amino acids)], for which the binding affinity ratio (IC50 of standard peptide / IC50 of test peptide) (ratio to standard peptide) stood at 0.0002.

Values taken from patent publication US7026443.
